# Data published in IntAct's records for PubMed 17948060.
# B1: G1/S-specific cyclin-D1 (Mus musculus), P25322 (parent)
# chain: MEHQLLCCEVETIRRAYPDTNLLNDRVLRAMLKTEETCAPSVSYFKCVQKEIVPSMRKIVATWMLEVCEEQKCEEEVFPLAMNYLDRFLSLEPLKKSRLQLLGATCMFVASKMKETIPLTAEKLCIYTDNSIRPEELLQMELLLVNKLKWNLAAMTPHDFIEHFLSKMPEADENKQTIRKHAQTFVALCATDVKFISNPPSMVAAGSVVAAMQGLNLGSPNNFLSCYRTTHFLSRVIKCDPDCLRACQEQIEALLESSLRQAQQNVDPKATEEEGEVEEEAGLACTPTDVRDVDI
# partner: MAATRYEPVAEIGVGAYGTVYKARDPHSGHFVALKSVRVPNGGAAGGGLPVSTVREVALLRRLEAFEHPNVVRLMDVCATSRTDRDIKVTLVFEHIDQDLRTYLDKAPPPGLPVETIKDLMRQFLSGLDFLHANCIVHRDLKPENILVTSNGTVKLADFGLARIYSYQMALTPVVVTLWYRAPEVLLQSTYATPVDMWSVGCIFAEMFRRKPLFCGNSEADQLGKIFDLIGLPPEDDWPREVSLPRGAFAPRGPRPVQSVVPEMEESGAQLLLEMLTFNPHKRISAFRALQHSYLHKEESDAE
# Variants of: B1
# Settings: with cdk4_mouse Cdk4, P30285
row,Variant,effect of a mutation on the interaction
1,MEHQLLCCEVETIRRAYPDTNLLNDRVLRAMLKTEETCAPSVSYFKCVQKEIVPSMRKIVATWMLEVCEEQKCEEEVFPLAMNYLDRFLSLEPLKKSRLQLLGATCMFVASKMAETIPLTAEKLCIYTDNSIRPEELLQMELLLVNKLKWNLAAMTPHDFIEHFLSKMPEADENKQTIRKHAQTFVALCATDVKFISNPPSMVAAGSVVAAMQGLNLGSPNNFLSCYRTTHFLSRVIKCDPDCLRACQEQIEALLESSLRQAQQNVDPKATEEEGEVEEEAGLACTPTDVRDVDI [K114A],disrupting interaction
